According to patent US20250289904A1 (UMC UTRECHT HOLDING B V, published 2025):

How the values were obtained:
[1] = target: plasmin-cleaved von Willebrand factor (cVWF) (human) (UniProt P04275); assay: capture ELISA, VHH coated on plate, concentration series of VWF and cVWF in buffer, detection with biotinylated VHH B9; reference: intact VWF
[2] = target: plasmin-cleaved von Willebrand factor (cVWF) (human) (UniProt P04275); assay: capture ELISA, cVWF in buffer, detection with biotinylated VHH B9
[3] = target: plasmin-cleaved von Willebrand factor (cVWF) (human) (UniProt P04275); assay: capture ELISA, cVWF spiked in citrated normal pooled plasma, detection with biotinylated VHH B9
[4] = target: T1, intact von Willebrand factor (VWF) (human, UniProt P04275 764-2813); assay: capture ELISA, VHH coated on plate, concentration series of VWF in buffer, detection with biotinylated VHH B9 and streptavidin-poly HRP
T1 construct: also called uncleaved VWF; purified VWF
T1 sequence (P04275 764-2813 limits assumed): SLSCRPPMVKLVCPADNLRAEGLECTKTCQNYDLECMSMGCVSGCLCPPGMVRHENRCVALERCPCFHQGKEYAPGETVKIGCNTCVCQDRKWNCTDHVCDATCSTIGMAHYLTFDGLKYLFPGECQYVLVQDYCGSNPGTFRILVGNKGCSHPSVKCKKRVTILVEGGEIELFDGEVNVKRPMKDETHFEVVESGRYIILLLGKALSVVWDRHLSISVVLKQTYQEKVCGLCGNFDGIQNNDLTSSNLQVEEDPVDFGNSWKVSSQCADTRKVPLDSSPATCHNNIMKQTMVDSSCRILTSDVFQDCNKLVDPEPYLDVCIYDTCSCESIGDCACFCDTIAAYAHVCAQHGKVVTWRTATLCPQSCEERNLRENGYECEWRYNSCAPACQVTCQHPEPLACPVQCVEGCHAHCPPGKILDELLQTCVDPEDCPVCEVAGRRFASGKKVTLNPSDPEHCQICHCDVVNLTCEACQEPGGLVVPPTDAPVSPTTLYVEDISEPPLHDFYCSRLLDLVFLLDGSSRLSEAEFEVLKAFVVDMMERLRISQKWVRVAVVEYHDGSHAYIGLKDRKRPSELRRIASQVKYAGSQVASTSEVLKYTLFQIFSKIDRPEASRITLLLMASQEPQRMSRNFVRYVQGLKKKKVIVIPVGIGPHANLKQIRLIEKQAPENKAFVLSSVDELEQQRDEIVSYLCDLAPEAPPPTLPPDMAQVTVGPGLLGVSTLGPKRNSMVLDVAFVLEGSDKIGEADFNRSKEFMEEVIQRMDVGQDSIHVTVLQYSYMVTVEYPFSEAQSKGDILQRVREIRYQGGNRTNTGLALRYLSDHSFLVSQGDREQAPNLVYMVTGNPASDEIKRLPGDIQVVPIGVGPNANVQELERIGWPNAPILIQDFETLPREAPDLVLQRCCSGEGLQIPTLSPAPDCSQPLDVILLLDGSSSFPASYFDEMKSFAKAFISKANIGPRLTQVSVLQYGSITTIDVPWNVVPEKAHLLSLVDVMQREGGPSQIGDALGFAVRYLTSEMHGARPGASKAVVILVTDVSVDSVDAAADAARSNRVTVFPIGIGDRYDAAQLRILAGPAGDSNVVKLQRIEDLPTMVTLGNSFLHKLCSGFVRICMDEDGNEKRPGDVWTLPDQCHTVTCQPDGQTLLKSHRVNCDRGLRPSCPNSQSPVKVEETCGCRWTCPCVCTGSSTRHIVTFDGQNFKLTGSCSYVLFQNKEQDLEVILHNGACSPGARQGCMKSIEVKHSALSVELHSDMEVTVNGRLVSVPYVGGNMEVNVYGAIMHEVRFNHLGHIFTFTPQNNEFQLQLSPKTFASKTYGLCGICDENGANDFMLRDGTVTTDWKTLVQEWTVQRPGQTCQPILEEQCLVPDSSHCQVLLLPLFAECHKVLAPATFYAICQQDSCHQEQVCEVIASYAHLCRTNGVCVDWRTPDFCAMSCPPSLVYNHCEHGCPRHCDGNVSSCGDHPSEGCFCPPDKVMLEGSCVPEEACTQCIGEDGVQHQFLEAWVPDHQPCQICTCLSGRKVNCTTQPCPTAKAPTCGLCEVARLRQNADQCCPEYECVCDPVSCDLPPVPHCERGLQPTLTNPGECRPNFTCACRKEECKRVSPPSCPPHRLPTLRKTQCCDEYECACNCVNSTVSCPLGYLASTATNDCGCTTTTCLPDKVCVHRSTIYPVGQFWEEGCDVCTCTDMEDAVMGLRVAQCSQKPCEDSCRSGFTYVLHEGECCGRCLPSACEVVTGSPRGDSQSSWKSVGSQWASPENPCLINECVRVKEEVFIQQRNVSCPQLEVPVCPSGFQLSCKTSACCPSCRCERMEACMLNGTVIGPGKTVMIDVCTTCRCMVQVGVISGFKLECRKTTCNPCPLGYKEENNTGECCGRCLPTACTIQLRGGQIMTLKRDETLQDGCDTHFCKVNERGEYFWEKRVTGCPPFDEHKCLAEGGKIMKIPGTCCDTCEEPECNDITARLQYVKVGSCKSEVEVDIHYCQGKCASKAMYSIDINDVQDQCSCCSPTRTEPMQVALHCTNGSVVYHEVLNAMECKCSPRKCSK

B1: cVWF capture VHH #1 (F5) (VHH, not shown: small tags and cut ends)
VHH: EVQLVESGGGLVQAGGSLRLSCAASGQTDSTYTGGWFRQAPGKEREFVATFSWNSGRTHFADSVKGRFTISRDNAKSTVFLQMNSLKPEDTAVYYCAAHRTSLTDYSFRYWGQGTHVTVSS
B1 was tested, and the fold discrimination between VWF and cVWF [1] was 144 fold, the sensitivity of the cVWF ELISA [2] was 8 ng/mL and the sensitivity of the cVWF ELISA [3] was 8 ng/mL.

B2: negative control VHH-R2 (VHH)
VHH: QVQLQESGGGLVQAGGSLRLSCAASGRATSGHGHYGMGWFRQVPGKEREFVAAIRWSGKETWYKDSVKGRFTISRDNAKTTVYLQMNSLKPEDTAVYYCAARPVRVDDISLPVGFDYWGQGTQVTVSS
notes: Production and tags of this control are not described
B2: no binding [4].

B3: cVWF capture VHH #2 (G5) (VHH, not shown: small tags and cut ends)
VHH: EVQLVESGGGLVQAGGSLRLSCAVSGRTVSNSMAWFRQAPEKEREFVAAISWNSGRTDYADSVKGRFTISRDNAKNTVDLQMNSLKAEDTAVYYCAVHRVRIEPKEYLYWGQGTQVTVSS
B3 showed a sensitivity of the cVWF ELISA [2] of 4 ng/mL and a sensitivity of the cVWF ELISA [3] of 4 ng/mL.
